# Measurements from patent US20240342207, “MODIFIED NUCLEIC ACID COMPOSITIONS AND ASSOCIATED METHODS FOR TREATMENT OF PHENYLKETONURIA” (BOARD OF REGENTS, THE UNIVERSITY OF TEXAS SYSTEM, published 2024).
# T1: PAH R157N (Homo sapiens, UniProt P00439 P00439:1-452, R157N)
# T1 sequence: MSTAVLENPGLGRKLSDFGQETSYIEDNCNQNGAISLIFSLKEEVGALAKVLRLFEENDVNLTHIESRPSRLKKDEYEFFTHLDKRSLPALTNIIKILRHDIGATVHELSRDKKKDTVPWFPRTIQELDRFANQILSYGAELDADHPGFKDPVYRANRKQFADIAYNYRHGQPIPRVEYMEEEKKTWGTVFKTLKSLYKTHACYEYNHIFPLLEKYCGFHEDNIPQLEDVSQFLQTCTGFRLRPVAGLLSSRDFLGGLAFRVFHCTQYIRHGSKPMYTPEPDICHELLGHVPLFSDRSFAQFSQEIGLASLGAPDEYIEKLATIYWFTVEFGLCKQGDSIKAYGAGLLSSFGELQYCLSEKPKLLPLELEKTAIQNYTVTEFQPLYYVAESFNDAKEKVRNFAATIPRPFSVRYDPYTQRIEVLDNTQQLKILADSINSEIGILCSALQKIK
# T2: PAH Y417H (Homo sapiens, UniProt P00439 P00439:1-452, Y417H)
# T2 sequence: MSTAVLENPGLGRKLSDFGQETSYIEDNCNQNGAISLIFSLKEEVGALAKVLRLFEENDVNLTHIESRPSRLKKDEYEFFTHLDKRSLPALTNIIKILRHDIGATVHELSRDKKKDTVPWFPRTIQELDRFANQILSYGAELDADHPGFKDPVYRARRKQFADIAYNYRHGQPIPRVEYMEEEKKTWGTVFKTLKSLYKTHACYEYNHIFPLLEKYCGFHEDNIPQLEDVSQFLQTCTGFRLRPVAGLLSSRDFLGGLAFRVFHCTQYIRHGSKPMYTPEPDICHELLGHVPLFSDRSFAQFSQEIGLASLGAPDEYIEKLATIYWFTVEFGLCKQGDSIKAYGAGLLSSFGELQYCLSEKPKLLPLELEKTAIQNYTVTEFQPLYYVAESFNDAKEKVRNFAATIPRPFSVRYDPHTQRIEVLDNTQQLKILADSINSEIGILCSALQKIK
# T3: PAH Y414C (Homo sapiens, UniProt P00439 P00439:1-452, Y414C)
# T3 sequence: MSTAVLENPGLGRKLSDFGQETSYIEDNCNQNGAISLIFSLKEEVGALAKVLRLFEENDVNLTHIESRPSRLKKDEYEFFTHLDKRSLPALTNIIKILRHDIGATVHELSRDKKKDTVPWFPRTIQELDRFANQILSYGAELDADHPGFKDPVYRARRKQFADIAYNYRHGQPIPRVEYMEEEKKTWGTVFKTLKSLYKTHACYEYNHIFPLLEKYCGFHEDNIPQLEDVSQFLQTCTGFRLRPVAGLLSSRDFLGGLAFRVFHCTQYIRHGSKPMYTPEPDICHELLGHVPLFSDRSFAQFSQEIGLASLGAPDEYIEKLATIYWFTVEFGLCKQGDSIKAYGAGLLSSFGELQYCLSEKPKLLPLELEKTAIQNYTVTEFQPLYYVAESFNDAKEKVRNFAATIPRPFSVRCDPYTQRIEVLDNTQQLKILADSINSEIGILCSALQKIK
# Experiments:
# Conditions in all cases: tags: His-tag, E. coli; stem-loop
# [1] = molecular target: T1, PAH R157N; test: EMSA; also decreased affinity in quantified assay
# From the text: (§1) It was reasoned that supplementing lncRNAs might improve the catalytic activities of the PAH mutants, leading to reduced serum Phe concentrations and improved symptoms in patients with PKU. Scramble (Scr) and HULC mimics representing wild-type HULC nt. 181-201 and HULC A191G mutated sequences were designed for the following studies. 17 PAH mutants that were identified from patients with PKU and are known to affect the enzymatic activity of PAH (21, 22) were selected, and bacterially-expressed wild-type and mutant PAH (FIG. 10 and see FIG. S13A in Li et al. 2021) were collected. […] The denatured wild-type PAH proteins were included as a negative control.
# (§2) RNA Electrophoretic Mobility Shift Assay (EMSA). The gel mobility shift assay was performed as previously described (42). Briefly, 500 ng recombinant His-tagged wild-type PAH or mutants were incubated with 0.035 μmol labeled probe in a RNA-protein binding buffer [(50 mM Tris-HCl 7.9, 10% glycerol, 100 mM KCl, 5 mM MgCl₂, 10 mM (3-ME, 0.1% NP40] for 30 min at 30° C. For cold RNA competition, 0.035 μmol radiolabeled RNA probes were first mixed with 7 μmol cold RNA competitors and then subjected to the gel shift assay.
# [2] = molecular target: T2, PAH Y417H; test: EMSA; one of 13 of 17 binding mutants (identity from p198 list)
# From the text: as §1, §2
# [3] = molecular target: T3, PAH Y414C; test: as above
# From the text: as §1, §2
binder,measurement,setting,value
CAAAAUGCAUAUGUAUCUUUG (ssRNA) [HULC 181-201 mimic],binding result,[1],no binding
same,binding result,[2],binds
same,binding result,[3],binds
